# “And” between values parts separate entries of the source, which are not always exact repeats. Identical values can stand only once.
# B1: human endostatin (EntreMed): recombinant human endostatin, gift from EntreMed Corporation (protein, listed as Homo sapiens)
# chain: HSHRDFQPVLHLVALNSPLSGGMRGIRGADFQCFQQARAVGLAGTFRAFLSSRLQDLYSIVRRADRAAVPIVNLKDELLFPSWEALFSGSEGPLKPGARIFSFNGKDVLTHPTWPQKSVWHGSDPNGRRLTESYCETWRTEAPSATGQAYSLLGGRLLGQSAASCHHAYIVLCIENSFMTASK
# Key:
# [1] = system: human microvascular endothelial cells (HMVECs); assay: VEGF-induced migration of HMVECs, modified Boyden chamber; assay type: cell-based; conditions: 100 ng/ml, VEGF 5 ng/ml
# Experimental: Endostatin peptides were tested for anti-endothelial cell migration activity. Inhibition of VEGF-induced migration of human microvascular endothelial cells (HMVECs) was determined using several doses of endostatin peptides (FIG. 5). Human peptides were used because the cells were of human origin and the migration response of the HMVECs was assayed using a modified Boyden chamber. VEGF (5 ng/ml) was used a chemotactic agent and cells were challenged with human endostatin (Entremed; EM-ES), human Fc-Endostatin (nFcES), human P1 (hP1), human P2 (hP2), human P6 (hP6), and human P1-H1/3A (hP1-H1/3A). Total migration per membrane was quantified from the capture images using Scion Image Software (National Institutes of Health) and the unpaired Student T test was used for statistical analysis. […] No significant differences in inhibition between these concentrations were observed. At higher and lower concentrations less or no inhibition was observed. At 500 ng/ml of hP1 no inhibition was observed. Thus, similar to full-length endostatin, there is a U-shaped response to hP1 inhibition of EC migration.
# The motility response of HMVEC-d cells was assayed using a modified Boyden chamber. Cells were plated in T75-cm2 flasks at 0.5×10^6 cells per flask and allowed to grow for 48 h (˜70% confluent) prior to the migration assay. To facilitate cell adhesion, the upper membrane of a transwell ([…]; Costar) was coated with fibronectin ([…]; Becton Dickinson, Bedford, Mass.) for 1 h at 37° C. Coated membranes were rinsed with PBS and allowed to air dry immediately before use. Cells were detached by trypsinization, treated with trypsinization neutralization solution (Clonetics), and resuspended at a final concentration of 1×10^6 cells/ml in serum-free endothelial basal medium (EBM; Clonetics) containing 0.1% BSA. Cells (200,000 in 0.2 ml) were then treated with 0.2 ml of EBM/BSA containing endostatin or peptides at the indicated concentrations. Cells were incubated for 20 min. at 37° C. with occasional shaking. Cells (50,000 in 100 μl) were added to the upper chamber of the transwell. EBM or EBM supplemented with VEGF (5 ng/ml) was added to the lower chamber and cells were allowed to migrate toward the bottom chamber for 4 h in a humidified incubator containing 5% CO2. Transwell filters were rinsed once with PBS and fixed and stained using a Diff-Quik staining kit (Baxter) following the manufacturer's protocol. Non-migrated cells were removed from the upper chamber with a cotton swab. Stained filters were cut out of the chamber and mounted onto slides using Permount (Fisher). The number of migrated cells was measured using microscopy (three fields from each membrane were captured using a 40× objective), and images were captured with a CCD camera using SPOT software. Total migration per membrane was quantified from the captured images using Scion Image software (National Institutes of Health). All experiments were run in triplicate. The unpaired Student t-test was used for statistical analysis.
# [2] = system: Female SCID mice; assay: Fertility, pregnancy and offspring in tumor-bearing female SCID mice
# Experimental: Female SCID mice were injected with human pancreatic tumor cells subcutaneously. When tumors reached a volume of approximately 100 mm^3 endostatin or placebo treatment was initiated and continued until the end of the study. After three days, females were mated.
# Human BxPC-3 cells were grown in cells culture as described above. After washing with sterile PBS, cells were trypsinized and briefly re-suspended in RPMI 1640 medium containing 10% fetal calf serum (FCS) and 1% glutamine penicillin streptomycin (GPS) solution. After centrifuging, the cell concentration was adjusted to 50×10^6 cells/ml in additive-free RPMI 1640 medium and kept on ice. Female SCID mice were shaved on the dorsal side and the naked skin was cleaned with ethanol prior to injection. A suspension of 5×10^6 cells/ml in 100 μl was then injected subcutaneously into the dorsa of these mice at about one centimetre left of the midline.
# Mice were weighed and tumors were measured every 7 days in two diameters using a dial-caliper. Tumor volumes were calculated using the formula a^2×b×0.52, while a being the shorter and b being the longer diameter. When tumors had reached a volume of approximately 100 mm^2 mice were divided into four groups.
# During the first experiment, one group received endostatin (20 mg/kg; n=8) or vehicle (n=8) via subcutaneous osmotic pumps (Durect Corp., Cupertino, Calif.). Pumps were inserted via a small incision and placed into a subcutaneous pocket on the right lateral aspect of the animals' dorsa. The pumps were changed every week for a total of four weeks.
# The other group received daily subcutaneous injections of endostatin (100 mg/kg, n=5) or vehicle (n=5) for the same period.
# During a second study we repeated the experiment with endostatin in subcutaneous pumps. The other group in this series received the murine N-terminal fragment of endostatin (mP-1) at a dose of 2.5 mg/kg twice daily or PBS (n=5 each).
# Three days after initiation of treatment female mice were added to a cage containing a male SCID mouse in a 1:1 ratio. All males had been housed separately three days prior to encountering the females and female bedding had been added to the male cages to enhance the males' libido.
# For the following seven days every female was checked for a vaginal mucous plug as a sign of mating. These exams were performed during the early morning hours to optimize the results. Once a mucous plug had been noticed, mating was considered ‘successful’, and the female was not further examined in order to minimize iatrogenic stress.
# Over the course of pregnancy the following parameters were assessed: ‘Mating Time’ describing the time between male encounter and the occurrence of a mucous plug; ‘Pregnancy Rate’, measured by ultrasound 15 days after the mucous plug was observed. The number of viable fetus was counted during this procedure; ‘Length of Pregnancy’, as measured from the time of successful mating to delivery; ‘Number of Total and Viable Litter’, counted on the day of birth; ‘Weight of Individual Pup’, by weighing the entire litter on the day of birth and calculating the mean weight.
# [3] = system: human umbilical vein endothelial cells (HUVEC); assay: VEGF stimulated migration of HUVEC, modified Boyden chambers; assay type: cell-based; conditions: FIG. 13
# Experimental: Cell migration assays were performed using modified Boyden chambers (6.5-mm diameter, 10-μm thickness, 8-μm pores, Transwell-Costar Corp., Cambridge, Mass.) coated with 10 μg/ml fibronectin in PBS overnight at 4° C. and rinsed with PBS. Subconfluent cells were trypsinized (0.01% trypsin/5 mM EDTA), neutralized with trypsin neutralization solution (Cascade Biologics Inc., Portland, Oreg.), washed, and resuspended in endothelial basal medium (EBM; Clonetics) with 0.1% BSA in the presence or absence of human endostatin (40, 200, 1000 ng/ml). In a second experiment we added either 600 ng/ml human endostatin or mP-1 at various doses (60, 200, 600 ng/ml). Cells were maintained in suspension for 30 min, added to the top of each migration chamber and allowed to migrate for 4 h in the presence or absence of VEGF (5 ng/ml) in lower chamber. Adherent cells were fixed and stained using the Hema-3 Stain System (Fisher Diagnostics, Middletown, Va.), following manufacturer's instructions. Non-migratory cells were removed with a cotton swab, and the number of migratory cells per membrane was captured using bright field microscopy connected to a Spot digital camera (Diagnostic Instruments, Sterling Heights, Mich.). Migrated cells from the captured image were counted using NIH image software. […]
molecule,measurement,setting,value
B1,inhibition of EC migration,[1],not at 100 ng/ml
same,mean length of pregnancy,"[2]; endostatin pumps, two experiments",20.6 ± 1.2 days and 20.75 ± 2 days
same,pregnancy rate with live births,[2]; injection group,60%
same,litter size per delivery,"[2]; injection studies, PBS 4.2±2.4",5±1
same,effect on the offspring,[2]; offspring of treated mice,did not see any negative effect on the offspring
same,litter size per delivery,"[2]; pump group, PBS 4.6±1.7",5±1.8
same,mean weight of pups on the day of delivery,"[2]; pump groups, PBS 1.4",1.51 g
same,mating time,"[2]; s.c. injections (endostatin 100 mg/kg daily; mP-1 2.5 mg/kg twice daily), PBS 1.9±0.9",2.8 ± 1.5 days
same,mating time,"[2]; s.c. osmotic pumps (endostatin 20 mg/kg), PBS 2.0±1",2.6 ± 1.4 days
same,migration of HUVEC,[3],inhibit migration

# From patent US7645735B2, “Anti-angiogenic peptides for treating or preventing endometriosis” (Children's Medical Center Corporation, priority 2003, dated 2010)
